We go through two molecules from article PMC2791412 (Biochemistry, 2009).

Like-named read-outs stand apart in the source and are kept apart here. No end group written: not given here.

Test [1] concerns the target T1, calmodulin (native vertebrate CaM) (vertebrate, UniProt P0DP23 1-149). Description: other fluorescence titration.
In test [2] the target is T1, calmodulin (native vertebrate CaM). The test can be described thus: other fluorescence titration. This is another data set of the same source.

B1: BIQ, fluorescent reporter containing an IQ domain sequence derived from neuromodulin (domain or fragment)
chain: AHKAATKIQASFRGHITRKKLKGEKKDDVQ
modifications: also: fluorescent reporter
In the case of B1, the dissociation constant (Kd) (in general, a measure of binding affinity in units of concentration) in test [1] was determined as 2.9 µM; in test [2], 2.4 µM.

B2: BIQPEP, fluorescent reporter containing an IQ domain sequence derived from PEP19 (domain or fragment)
chain: TERAAVAIQSQFRKFQKKKAGSQS
modifications: also: fluorescent reporter
Turning to B2, the Kd turned out to be 11 µM in test [1] and 1130 µM in test [2].
